Where “and” joins values, the source holds several entries; their conditions need not be identical. Equal entries are not always repeated. Where two headings read alike, the source gives them in different places. Values belong to the molecule of their own block, whether it stands above or below them. No end group written: not given here.
How the values were obtained:
[1] = target: T1, human CRH receptor type 2 (human, UniProt Q13324 1-411); assay: cell-based or functional assay
T1 sequence (looked up): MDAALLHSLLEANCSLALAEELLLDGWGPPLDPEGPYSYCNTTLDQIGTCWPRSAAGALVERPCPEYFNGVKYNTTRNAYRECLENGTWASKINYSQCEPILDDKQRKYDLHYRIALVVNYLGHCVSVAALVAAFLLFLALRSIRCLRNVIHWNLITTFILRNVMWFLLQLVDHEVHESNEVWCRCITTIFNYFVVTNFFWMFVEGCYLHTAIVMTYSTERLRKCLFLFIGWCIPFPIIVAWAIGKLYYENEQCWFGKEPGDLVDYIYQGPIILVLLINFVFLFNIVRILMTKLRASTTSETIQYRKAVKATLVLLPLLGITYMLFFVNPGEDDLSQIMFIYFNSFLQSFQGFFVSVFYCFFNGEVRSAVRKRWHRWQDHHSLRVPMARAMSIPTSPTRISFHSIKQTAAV

[2] = target: T1, human CRH receptor type 2; assay: radioligand competition, [125I]-anti-sauvagine-30, membranes of h-CRHR2 SK-N-MC cells
[3] = target: T1, human CRH receptor type 2; assay: cell-based or functional assay; remark: listed apart in the source
[4] = target: T2, human CRH receptor type 1 (human, UniProt P34998 24-415); assay: cell-based or functional assay
T2 sequence (looked up): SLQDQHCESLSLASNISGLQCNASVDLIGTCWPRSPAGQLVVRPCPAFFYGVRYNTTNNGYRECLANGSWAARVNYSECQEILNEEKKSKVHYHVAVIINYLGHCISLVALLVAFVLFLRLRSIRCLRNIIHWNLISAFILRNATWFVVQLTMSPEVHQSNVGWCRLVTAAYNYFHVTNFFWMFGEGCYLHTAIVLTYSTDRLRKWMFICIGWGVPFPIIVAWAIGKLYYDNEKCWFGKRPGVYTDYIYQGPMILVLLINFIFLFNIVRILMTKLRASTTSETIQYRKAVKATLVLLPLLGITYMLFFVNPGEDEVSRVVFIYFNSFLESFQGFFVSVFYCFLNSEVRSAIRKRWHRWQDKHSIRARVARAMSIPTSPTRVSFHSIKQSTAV

[5] = target: T3, human CRH receptor type 1 (human), P34998; assay: radioligand competition, [125I]-(Tyr0)-sauvagine, CRHR1 membrane assay; conditions: remark: other sources report otherwise
T3 chain: T2 sequence (looked up)

[6] = target: T1, human CRH receptor type 2; assay: cell-based or functional assay; remark: listed apart in the source
[7] = target: T1, human CRH receptor type 2; assay: inferred from the test as antagonist at 10 µM, cAMP assay on h-CRHR2 SK-N-MC cells
[8] = target: T1, human CRH receptor type 2; assay: cell-based or functional assay; remark: listed apart in the source
[9] = target: T2, human CRH receptor type 1; assay: radioligand competition, [125I]-(Tyr0)-sauvagine, CRHR1 membrane assay
[10] = target: T1, human CRH receptor type 2; assay: cell-based or functional assay; remark: listed apart in the source
[11] = target: T1, human CRH receptor type 2; assay: radioligand competition, [125I]-anti-sauvagine-30, membranes of h-CRHR2 SK-N-MC cells; biphasic curve
[12] = scale: % of the maximum response obtained to h-SCP

- pA50, cAMP [1]: 9.51 -log M
- αmax, cAMP [1]: 115 and 129
- αmax, cAMP [1, 12]: 117
- pKI [2]: 7.74 -log M
Molecule: human urocortin 2 (peptide)

- pA50, cAMP [1]: 9.32 -log M and 9.58 -log M and 9.23 -log M
- αmax, cAMP [1]: 114 and 109 and 98.6
- pKI [2]: 7.57 -log M
Molecule: h-SRP (peptide)

- Log DR against h-SCP, cAMP [3]: ~2.59 log10 ratio
- pA50, cAMP [3]: ~6.98 -log M
Molecule: TKFTLSLDVCTNIMNLLFNIAKAKNLRAQAAANAHLMAQI (NES-PEG (about 20 kDa) on Cys 10; C-terminal amide) [Pegylated Cys-variant CRHR2 peptide agonist (NES linker, PEG about 20 kDa), SEQ ID NO: 64]

- Log DR against h-SCP, cAMP [3]: ~2.75 log10 ratio
- pA50, cAMP [3]: ~6.82 -log M
Molecule: TKFTLSLDVPCNIMNLLFNIAKAKNLRAQAAANAHLMAQI (NES-PEG (about 20 kDa) on Cys 11; C-terminal amide) [Pegylated Cys-variant CRHR2 peptide agonist (NES linker, PEG about 20 kDa), SEQ ID NO: 65]

- pA50, cAMP [4]: < 5 -log M
- pKI [5]: 4.96 -log M
- pKI [2]: 6.49 -log M
- pA50, cAMP [6]: 9.26 -log M
- αmax, cAMP [6]: 102
Molecule: FTLSLDVPTNIMNLLFNIAKAKNLRAQAAANAHLMAQI-NH2 [human Urocortin III]

- KA (receptor affinity, in µM) [7]: > 10 µM
Molecule: DVPTNIMNLLFNIAKAKNLRAQAAANAHLMAQI-NH2 [CRHR2 peptide agonist with shortened amino acid sequence, 33aa, SEQ ID NO: 112]

- pA50, cAMP [8]: 8.49 -log M
- αmax, cAMP [8]: 106 % of the maximum response to h-SCP
Molecule: TLSLDVPTNIMNLLFNIAKAKNLRAQAAANAHLMAQI-NH2 [CRHR2 peptide agonist with shortened amino acid sequence, 37aa, SEQ ID NO: 108]

- KA (receptor affinity, in µM) [7]: > 10 µM
Molecule: SLDVPTNIMNLLFNIAKAKNLRAQAAANAHLMAQI-NH2 [CRHR2 peptide agonist with shortened amino acid sequence, 35aa, SEQ ID NO: 110]

- Log DR against h-SCP, cAMP [3]: 1.72 log10 ratio
- pA50, cAMP [3]: 7.86 -log M
Molecule: TKFTLSLDVPCNIMNLLFNIAKAKNLRAQAAANAHLMAQI-NH2 [Cys-variant CRHR2 peptide agonist, SEQ ID NO: 12]

- Log DR against h-SCP, cAMP [3]: 0.82 log10 ratio
- pA50, cAMP [3]: 8.76 -log M
Molecule: TKFTLSLDVCTNIMNLLFNIAKAKNLRAQAAANAHLMAQI-NH2 [Cys-variant CRHR2 peptide agonist, SEQ ID NO: 11]

- KA (receptor affinity, in µM) [7]: > 10 µM
Molecule: LDVPTNIMNLLFNIAKAKNLRAQAAANAHLMAQI-NH2 [CRHR2 peptide agonist with shortened amino acid sequence, 34aa, SEQ ID NO: 111]

- pA50, cAMP [8]: 9.25 -log M
- αmax, cAMP [8]: 111 % of the maximum response to h-SCP
Molecule: KFTLSLDVPTNIMNLLFNIAKAKNLRAQAAANAHLMAQI-NH2 [CRHR2 peptide agonist with shortened amino acid sequence, 39aa, SEQ ID NO: 107]

- pKI [9]: 5.81 -log M
- pKI [2]: 7.78 -log M
- pA2 against h-SCP, cAMP [6]: 7.82 -log M
B1: anti-sauvagine-30 (peptide)
peptide: FHLLRKMIEIEKQEKEKQQAANNRLLLDTI-NH2
notes: selective CRHR2 antagonist; also called SV30; CRHR antagonist peptide

- potency against amidated h-SCP, cAMP [10]: ~200 fold less potent
- pA50, cAMP [8]: 7.1 -log M
- αmax, cAMP [8]: 107 % of the maximum response to h-SCP
Molecule: TKFTLSLDVPTNIMNLLFNIAKAKNLRAQAAANAHLMAQI-OH [non-amidated h-SCP]

- pA50, cAMP [4]: < 5 -log M
- pKI [9]: 4.6 -log M
- pIC50 (low affinity state) [11]: 6.6 -log M
- pKI [2]: 5.71 -log M
- A50, cAMP [6]: 0.4 nM
- control pA50, cAMP [6]: 9.47 to 9.74 -log M
- pA50, cAMP [6]: 9.4 -log M
- pA50, cAMP (one batch) [6]: 9.41 -log M
- αmax, cAMP (% of the maximum response to h-SCP) [6]: 98.7
- αmax, cAMP [6, 12]: 100
Molecule: TKFTLSLDVPTNIMNLLFNIAKAKNLRAQAAANAHLMAQI-NH2 (40 amino acids; also called h-SCP) [Human stresscopin with amidated C-terminus]

- pA50, cAMP [4]: 9.19 -log M
- pA50, cAMP [1]: 9.08 -log M
- αmax, cAMP [1]: 110
- pKI [2]: 8.51 -log M
Molecule: DDPPLSIDLTFHLLRTLLELARTQSQRERAEQNRIIFDSV-NH2 [r-UCN1]

Source: patent publication US20100130424A1 (Janssen / Centocor, published 2010)
